This experiment has as its target 25-strain panel of pre- and post-Omicron VSV-based SARS-CoV-2 S pseudotyped viruses. Description: cell-based or functional assay.

B1: S2V29-v37.2 (antibody, V domains shown)
VH: EVQLVESGGSVVQPGRALRLSCAASGITFSSFGMYWVRQAPGKGLEWLGYIAYDGSDTYYADSVKGRFTISRDNSKNTLYLQMNSLRIEDTAVYYCAKDYYPLLSYYYGLDVWGQGTTVTVSS
VL: QSVLTQPRSVSGSPGQSVTISCTGTSSDVGAYNYVSWYQQHPGKAPKFMIYDVDQRPSGVPDRFSGSKSGNTASLIISGLQAEDEADYYCSSYAGSYIWVFGGGTQLTVL
In turn, B1 registered an IC50, pseudovirus neutralization of 1.9 to 31.2 ng/mL and a median IC50, pseudovirus neutralization of 8.2 ng/mL.

The values are drawn from patent US20260274928A1.
